Among the data in the Human Domainome abundance scans (Beltran et al. 2025) are abundance fitness values, retold here.

± gives the uncertainty stated by the source.

The series is described as follows: abundance fitness (aPCA) (normalised: wild type 0, dead -1); higher = more abundant; growth selection in yeast, the domain comes from the species named. Particulars: Homo sapiens.
The substance “Transcriptional activator Myb M189C, P10242” gave an abundance fitness of -0.311 ± 0.095. To “Transcriptional activator Myb M189D, P10242” belongs -0.384 ± 0.094; to “Transcriptional activator Myb M189F, P10242”, -0.045 ± 0.16; to “Transcriptional activator Myb M189G, P10242”, -0.268 ± 0.05. Consider “Transcriptional activator Myb M189I, P10242”, for which the abundance fitness is -0.313 ± 0.19. Substance “Transcriptional activator Myb M189K, P10242” came in with an abundance fitness of 0.038 ± 0.14. To “Transcriptional activator Myb M189L, P10242” belongs 0.073 ± 0.083.

Consider “Transcriptional activator Myb M189N, P10242”, for which the abundance fitness is -0.155 ± 0.14. To “Transcriptional activator Myb M189P, P10242” belongs -0.386 ± 0.17; to “Transcriptional activator Myb M189R, P10242”, -0.303 ± 0.064; to “Transcriptional activator Myb M189S, P10242”, -0.303 ± 0.065. The substance “Transcriptional activator Myb M189T, P10242” returned an abundance fitness of -0.181 ± 0.085. The substance “Transcriptional activator Myb M189V, P10242” yielded an abundance fitness of -0.02 ± 0.064. “Transcriptional activator Myb M189W, P10242” came in with an abundance fitness of -0.36 ± 0.093. Regarding “Transcriptional activator Myb M189Y, P10242”, the abundance fitness was -0.535 ± 0.15. “Transcriptional activator Myb N179A, P10242”: the abundance fitness turned out to be 0.001 ± 0.053. To “Transcriptional activator Myb N179C, P10242” belongs -0.022 ± 0.088; to “Transcriptional activator Myb N179E, P10242”, 0.016 ± 0.069; to “Transcriptional activator Myb N179F, P10242”, -0.027 ± 0.12. On to “Transcriptional activator Myb N179G, P10242”, for which the abundance fitness worked out at 0.004 ± 0.041. On to “Transcriptional activator Myb N179H, P10242”, for which the abundance fitness is -0.04 ± 0.094. For the substance “Transcriptional activator Myb N179I, P10242”, the abundance fitness amounted to 0.127 ± 0.14. “Transcriptional activator Myb N179L, P10242” returned an abundance fitness of 0.029 ± 0.059. “Transcriptional activator Myb N179P, P10242” returned an abundance fitness of -0.489 ± 0.097. As for “Transcriptional activator Myb N179Q, P10242”, the abundance fitness is -0.025 ± 0.078. The substance “Transcriptional activator Myb N179S, P10242” came in with an abundance fitness of -0.075 ± 0.061. The value for “Transcriptional activator Myb N179T, P10242” was 0.026 ± 0.075; that for “Transcriptional activator Myb N179W, P10242” was -0.169 ± 0.066. In turn, “Transcriptional activator Myb N179Y, P10242” displayed an abundance fitness of -0.075 ± 0.1. Regarding “Transcriptional activator Myb N183A, P10242”, the abundance fitness was determined as 0.037 ± 0.094. The value for “Transcriptional activator Myb N183C, P10242” was -0.203 ± 0.12; that for “Transcriptional activator Myb N183D, P10242” was 0.142 ± 0.18; that for “Transcriptional activator Myb N183E, P10242” was 0.011 ± 0.098. For the substance “Transcriptional activator Myb N183F, P10242”, the abundance fitness is -0.176 ± 0.14. In the case of “Transcriptional activator Myb N183G, P10242”, the abundance fitness was -0.067 ± 0.063. “Transcriptional activator Myb N183H, P10242”: the abundance fitness came out at 0.141 ± 0.17.

Consider “Transcriptional activator Myb N183I, P10242”, for which the abundance fitness is -0.022 ± 0.11. “Transcriptional activator Myb N183K, P10242” yielded an abundance fitness of -0.192 ± 0.099.

With “Transcriptional activator Myb N183L, P10242”, the abundance fitness was -0.074 ± 0.084.

“Transcriptional activator Myb N183M, P10242” showed an abundance fitness of 0.068 ± 0.11. On to “Transcriptional activator Myb N183P, P10242”, for which the abundance fitness was -1.09 ± 0.14. “Transcriptional activator Myb N183Q, P10242” had an abundance fitness of -0.094 ± 0.13. For the substance “Transcriptional activator Myb N183R, P10242”, the abundance fitness was -0.153 ± 0.051.

The substance “Transcriptional activator Myb N183S, P10242” had an abundance fitness of -0.019 ± 0.085. Substance “Transcriptional activator Myb N183T, P10242” returned an abundance fitness of 0.101 ± 0.086. To “Transcriptional activator Myb N183W, P10242” belongs -0.198 ± 0.084; to “Transcriptional activator Myb N183Y, P10242”, -0.343 ± 0.1. As to “Transcriptional activator Myb N186A, P10242”, the abundance fitness was -0.081 ± 0.07. With “Transcriptional activator Myb N186C, P10242”, the abundance fitness is -0.028 ± 0.089. As to “Transcriptional activator Myb N186E, P10242”, the abundance fitness was determined as 0.037 ± 0.079. “Transcriptional activator Myb N186F, P10242” displayed an abundance fitness of -0.055 ± 0.13.

Regarding “Transcriptional activator Myb N186G, P10242”, the abundance fitness is -0.162 ± 0.055. Substance “Transcriptional activator Myb N186H, P10242” yielded an abundance fitness of -0.139 ± 0.19. Turning to “Transcriptional activator Myb N186I, P10242”, the abundance fitness is 0.027 ± 0.1. The value for “Transcriptional activator Myb N186K, P10242” was 0.065 ± 0.1; that for “Transcriptional activator Myb N186L, P10242” was -0.016 ± 0.071; that for “Transcriptional activator Myb N186M, P10242” was -0.007 ± 0.11.

With “Transcriptional activator Myb N186P, P10242”, the abundance fitness was -0.804 ± 0.14. For “Transcriptional activator Myb N186R, P10242”, the abundance fitness was -0.047 ± 0.059.

For “Transcriptional activator Myb N186S, P10242”, the abundance fitness is -0.062 ± 0.062. “Transcriptional activator Myb N186V, P10242” displayed an abundance fitness of -0.017 ± 0.072.

“Transcriptional activator Myb N186Y, P10242”: the abundance fitness was -0.154 ± 0.15.

Substance “Transcriptional activator Myb P174A, P10242” had an abundance fitness of -0.359 ± 0.066. For the substance “Transcriptional activator Myb P174C, P10242”, the abundance fitness was -0.239 ± 0.15. The substance “Transcriptional activator Myb P174D, P10242” displayed an abundance fitness of -0.224 ± 0.1. In the case of “Transcriptional activator Myb P174E, P10242”, the abundance fitness was -0.02 ± 0.098. As for “Transcriptional activator Myb P174F, P10242”, the abundance fitness is -0.298 ± 0.17.

“Transcriptional activator Myb P174G, P10242” showed an abundance fitness of -0.462 ± 0.056. For “Transcriptional activator Myb P174H, P10242”, the abundance fitness is -0.479 ± 0.12. As to “Transcriptional activator Myb P174I, P10242”, the abundance fitness was -0.339 ± 0.14.

The substance “Transcriptional activator Myb P174K, P10242” registered an abundance fitness of -0.086 ± 0.11. “Transcriptional activator Myb P174L, P10242” displayed an abundance fitness of -0.443 ± 0.082. In the case of “Transcriptional activator Myb P174M, P10242”, the abundance fitness is -0.329 ± 0.093. Regarding “Transcriptional activator Myb P174N, P10242”, the abundance fitness was -0.255 ± 0.16. “Transcriptional activator Myb P174R, P10242” returned an abundance fitness of -0.251 ± 0.052. For the substance “Transcriptional activator Myb P174S, P10242”, the abundance fitness is -0.338 ± 0.088. To “Transcriptional activator Myb P174T, P10242” belongs -0.184 ± 0.074. Substance “Transcriptional activator Myb P174V, P10242” registered an abundance fitness of -0.127 ± 0.073.

“Transcriptional activator Myb P174Y, P10242” came in with an abundance fitness of -0.643 ± 0.12. In turn, “Transcriptional activator Myb Q157L, P10242” came in with an abundance fitness of -0.081 ± 0.22. Take “Transcriptional activator Myb Q195A, P10242”: the abundance fitness is -0.045 ± 0.079. The value for “Transcriptional activator Myb Q195C, P10242” was -0.043 ± 0.12. “Transcriptional activator Myb Q195D, P10242” yielded an abundance fitness of -0.19 ± 0.13. The substance “Transcriptional activator Myb Q195E, P10242” yielded an abundance fitness of 0.006 ± 0.15.

In turn, “Transcriptional activator Myb Q195F, P10242” came in with an abundance fitness of -0.244 ± 0.15. “Transcriptional activator Myb Q195G, P10242” gave an abundance fitness of -0.074 ± 0.074. Regarding “Transcriptional activator Myb Q195H, P10242”, the abundance fitness is -0.269 ± 0.16. To “Transcriptional activator Myb Q195I, P10242” belongs -0.19 ± 0.15. “Transcriptional activator Myb Q195K, P10242” had an abundance fitness of -0.388 ± 0.41.

In turn, “Transcriptional activator Myb Q195L, P10242” displayed an abundance fitness of -0.057 ± 0.091. “Transcriptional activator Myb Q195M, P10242” displayed an abundance fitness of -0.199 ± 0.16. Regarding “Transcriptional activator Myb Q195N, P10242”, the abundance fitness is 0.107 ± 0.29. As to “Transcriptional activator Myb Q195P, P10242”, the abundance fitness was -0.214 ± 0.15. As to “Transcriptional activator Myb Q195R, P10242”, the abundance fitness turned out to be 0.091 ± 0.07. Substance “Transcriptional activator Myb Q195S, P10242” returned an abundance fitness of -0.054 ± 0.1.
